Target: T1, 食蟹猴VISTA-Fc (cynomolgus monkey, UniProt A0A7N9IB00 33-194)
T1 construct: Bought reagent; also called VISTA-Fc(食蟹猴，Sino biological Inc); not shown: Fc part
T1 sequence: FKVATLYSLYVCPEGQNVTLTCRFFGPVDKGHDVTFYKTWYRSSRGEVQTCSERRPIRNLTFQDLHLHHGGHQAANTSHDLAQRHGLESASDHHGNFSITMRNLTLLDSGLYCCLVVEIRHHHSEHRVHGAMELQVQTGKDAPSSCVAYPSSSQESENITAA
Experiment: ELISA on coated VISTA-Fc, anti-human kappa-HRP detection

- EC50: 0.065 µg/mL
B1: 阳性参照抗体VSTB112 (antibody, V domains shown)
VH: QVQLVQSGAEVKKPGSSVKVSCKASGGTFSSYAISWVRQAPGQGLEWMGGIIPIFGTANYAQKFQGRVTITADESTSTAYMELSSLRSEDTAVYYCARSSYGWSYEFDYWGQGTLVTVSS
VL: DIQMTQSPSSLSASVGDRVTITCRASQSIDTRLNWYQQKPGKAPKLLIYSASSLQSGVPSRFSGSGSGTDFTLTISSLQPEDFATYYCQQSAYNPITFGQGTKVEIKR
